From US20260132193A1 (XBIOTECH, published 2026) come the findings set out here.

The experiment concerns the target T1, recombinant human interleukin 1 alpha (IL-1α) (human, UniProt P01583 113-271).
T1 sequence (looked up): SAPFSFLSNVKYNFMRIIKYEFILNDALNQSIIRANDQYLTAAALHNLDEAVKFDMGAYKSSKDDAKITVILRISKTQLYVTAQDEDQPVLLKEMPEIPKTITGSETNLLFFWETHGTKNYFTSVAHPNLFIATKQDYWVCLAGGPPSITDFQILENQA
Put plainly: cell-based or functional assay.

B1: XIA11 human monoclonal antibody (antibody, V domains shown)
VH: QVQLVQSGAEVKKPGSSVKVSCKASGGRFTNYAILWVRQAPGQGLQWLGGIIPIFDETDHAQDFQDRLTITVDESMTTAYMELSSLRPEDTAIYYCATGSNSYYGLYWGQGTLVTVSS
VL: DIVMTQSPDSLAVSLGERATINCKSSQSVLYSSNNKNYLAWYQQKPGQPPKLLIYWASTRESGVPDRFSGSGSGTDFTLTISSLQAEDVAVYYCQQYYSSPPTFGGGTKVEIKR
Turning to B1, the “HUVEC-based potency assay (ICAM-1 expression by flow cytometry), IC50” value stood at 3.4 ng/mL.
